In data set [1] the target is T1, murine METAP1 (Mus musculus, UniProt Q8BP48).
T1 construct: final preparations of full-length METAP1 utilized in in vitro experiments in this study were purified, stripped of metal; 6xHis (N, cleaved yes); SUMO (N, cleaved yes); made in house; host or cells: E. coli BL21(DE3)
As to the kind of experiment: Murine ZNG1 activation of METAP1 assay (Met release from MAHAIHY). Format: biochemical. The method, then: Methionine aminopeptidase activity was evaluated by quantifying the release of Met from the heptapeptide MAHAIHY (Genscript) as adapted from (Kabir-ud-Din, 2003). Reactions were conducted at 25° C. in 25 mM HEPES pH 7.4, 150 mM NaCl, 2 mM TCEP and consisted of 20 nM murine METAP1 with 0, 1, or 2 molar equivalents of Zn. Reactions were initiated with the addition of varying concentrations of MAHAIHY peptide. 50 μL aliquots were taken every 30 sec from 30-150 sec and the reaction was quenched with the addition of 10 μL glacial acetic acid (Supelco, Sigma-Aldrich). 60 μL of 4% w/v ninhydrin (Sigma-Aldrich) in 100% ACN was added to each quenched reaction and incubated at 37° C. for 1 h to detect free Met. The absorbance at 570 nm was measured and the cleaved Met concentration was determined from a standard curve of 10-500 μM Met. All data are reported as the average of triplicate measurements from each evaluated experimental condition. Midpoint and completed reactions were additionally analyzed by LC-ESI-MS to confirm the generation of the expected AHAIHY cleaved peptide product (FIG. 11 I).
Activation assays were performed in 25 mM HEPES pH 7.4, 150 mM KCl, 2 mM MgCl2, 2 mM TCEP. 250 μM NTA was included where indicated. 10 μM Zn2METAP1 was incubated with 25 μM apo or ZnZNG1 (ZNG1 loaded with 0.9 eq, 22.5 μM, Zn) at 37° C. for 1 h. Reactions were diluted 500-fold in 25 mM HEPES pH 7.4, 150 mM NaCl, 2 mM TCEP to a final concentration of 20 nM METAP1 and methionine aminopeptidase activity was assayed as described above by initiating the enzymatic reaction with addition of 750 μM MAHAIHY. When using GTP, GDP, or GDPNP, the activation reaction contained 500 μM of the indicated nucleotide. A control activation reaction of Zn-NTA contained 22.5 μM and 250 μM NTA in reaction buffer.

The subject of data set [2] is TKPTS cells. As to the kind of experiment: TKPTS cell proliferation by CellTrace flow cytometry. Format: cell-based, murine. How it is done:
TKPTS cells were seeding at 2,000 to 4,000 cells per well of 24- or 12-well tissue culture treated multi-well plates and incubated overnight at 37° C. Cells were staining with CellTRACE violet (Invitrogen, C34557) as described by manufacturer's protocol. Briefly, CellTRACE solution was prepared in PBS at a 1:1,000 dilution, added to the cells, and cells were incubated for 20 min at 37° C. Cells were then washed two times in cell culture media supplemented with 7% FBS, and replaced with fresh cell culture media supplemented with desired chemical treatments (3 μM TPA, Sigma, 723134; 5 μg/ml TNP470, Sigma, T1455; or 50 nM Bengamide B, Santa cruz, sc-397521A). Stock solutions of drugs were prepared in ACS-grade DMSO (Fisher Scientific, D136). […] After three days of growth, cells were stained with MitoTracker far-red (Invitrogen, M22426; 1:2500 dilution for 20 min at 37° C.) and MitoSOX red (Molecular probes, M36008: 1,1000 for 20 min at 37° C.) following manufacture's protocols. Cells were washed with PBS, trypsinized, and transferred to Eppendorf tubes prior to fixation in 4% PFA (Alfa aesar, J61899). Cells were fixed for 20 min at room temperature, centrifuged at 200×g for 10 min and washed with PBS prior to resuspension in 300 μl FACS buffer (2% FBS, 0.02% sodium azide in PBS). All flow cytometry data were collected using a BD LSRII flow cytometer with FACSDIVA software and analyzed using FlowJo (FlowJo LLC). Samples were gated forward scatter height (FSC-H) by forward scatter area (FSC-A) and side scatter height (SSC-H) by side scatter area (SSC-A) to remove doublet populations. The singlet population was gated SSC-A by FSC-A to isolate live cells. The resulting cell population was then assessed for assay-specific fluorescent markers and the median fluorescence intensity (MFI) quantified.
In general terms: Flow cytometry measures light scatter and fluorescence of single cells or particles in a stream.

Data set [3] deals with zebrafish larvae (WT and zng1^−/−). As to the kind of experiment: Zebrafish larval survival under Metap inhibitor immersion. Format: in vivo. How it is done: (§1) For all experiments larval zebrafish were bred naturally and collected into embryo media and were maintained at 28° C. on a 14/10 h light/dark cycle for duration of experiments. For survival experiments, zebrafish larvae were split into even densities into 6 or 12 multi-well plates in 5 mL or 1 mL embryo media respectively at 3 dpf. Stock solutions of METAP2 inhibitor TNP-470 (Sigma, T1455) and METAP1/2 inhibitor Bengamide B (Santa cruz, sc-397521A) were prepared in ACS-grade DMSO (Fisher Scientific, D136) and TPEN (Sigma, P4413) was prepared in ethanol and stored at −20° C. TNP-470, Bengamide B, and/or TPEN were applied into embryo media as well as a DMSO and/or ethanol vehicle controls at 3 dpf. Zebrafish survival was monitored daily until 6 dpf and all moribund or dead animals were removed. For qPCR experiments, larvae were split at 3 dpf into groups of 20-30 larvae in 20 mL of embryo media supplemented either 20 μM of TPEN or ethanol vehicle control. For imaging experiments, 6 dpf zebrafish larvae treated with 500 nM to 1 μM of Bengamide B or vehicle control were imaged by a Leica Thunder M205FCA stereomicroscope with a Leica DFC9000 GT camera.

The test system of data set [4] is zebrafish larvae (WT, zng1 mutant, metap1 mutant). As to the kind of experiment: Zebrafish larval morphometry and gross pathology imaging. Format: in vivo. How it is done: as §1
Data set [5] concerns the target T2, zebrafish Metap1 (Danio rerio, UniProt Q4QRK0).
T2 construct: Full-length zebrafish metap1 was amplified from 6 dpf whole larval cDNA and cloned into pLM302; 6xHis (N); MBP (N); made in house; host or cells: E. coli BL21(DE3)
As to the kind of experiment: Zebrafish Metap1 methionine aminopeptidase activity (HPLC endpoint). Format: biochemical. The conditions noted are these: 1 μM Dr Zng1 and 1 μM Metap1, 100 μM MAHAIHY. The method, then: A single endpoint assay was used for these experiments. Reaction buffer (20 mM HEPES (pH 7.5), 150 mM NaCl) was chelex treated overnight at 4° C. 1 μM solutions of zebrafish Metap1 and Zng1 were made in reaction buffer. To strip Zn from the METAP1 active site, 3 μM of TPEN was incubated with 1 μM METAP1 at 4° C. for 1 h. To prepare holo-Zng1 (Zn bound), Zng1 was incubated with 10 μM of ZnCl2 for 1 h at 4° C. As a control, Metap1 was incubated with reaction buffer alone. Following the 1 h incubation, Zng1 and Metap1 were washed four times with chelex-treated reaction buffer using protein concentration columns (Amicon Ultra, UFC500396). After washes, proteins were mixed and incubated at 37° C. for 30 min. Following incubation, 100 μM of the synthetic peptide MAHAIHY (Genscript) was added to reactions and incubated for 90 min at 37° C. Reactions were stopped by the addition of a final concentration of 2% trifluoroacetic acid and samples were centrifuged at max speed for 5 min. […]
Twenty μL of each sample and standard was analyzed on an Agilent 1260 Infinity II system. […] MAHAIHY and AHAIHY were detected using absorbance at 280 nm, and retention times were confirmed using each standard. Methionine aminopeptidase relative activity was determined by calculating the percent of MAHAIHY converted to AHAIHY using the AUC values at 280 nm for each peptide.

Data set [6] deals with murine METAP1 1-79 (mouse, UniProt Q8BP48). Put plainly: intrinsic Trp (W45) fluorescence quenching, 1:1 model. The method, then:
(§2) Peptide binding experiments were performed using an ISS PC1 spectrofluorometer at 25.0° C. Intrinsic Trp fluorescence was monitored using λₑₓ=292 nm nm and λₑₘ=350 nm, with quenching of the 350 nm emission maxima as aliquots of ZNG1 peptide were added. Different [METAP1_{1-59/1-79}] values were used for replicate experiments to better calculate the binding stoichiometry and analyzed globally. In a typical experiment, 5 μM METAP1_{1-59/1-79} in 2.5 mL were incubated for 10 min in chelexed buffer [25 mM HEPES (pH 7.4), 150 mM NaCl, and 2.5 mM TCEP], and aliquots of ZNG1 peptide were added. The equilibrium time was 2 min between subsequent additions of ZNG1 peptide. The peak emission intensities at 350 nm from triplicate experiments were globally fit to a 1:1 binding model using Dynafit (Kuzmic, 1996).
(§3) METAP1 binding of ZNG1 peptides was confirmed by monitoring quenching of W45 fluorescence in murine METAP1₁₋₅₉ and METAP1₁₋₇₉, upon addition of chemically synthesized N-terminal ZNG1 peptides from human, mouse, and zebrafish (FIGS. 2D,E and 9 I). […] Combined, these findings identify the specific regions of interaction between ZNG1 and METAP1.

The target of data set [7] is murine METAP1 1-59 (mouse, UniProt Q8BP48). Described as above. How it is done:
as §2, §3

[8] abbreviates: 10 μM Zn2METAP1, 25 μM ZNG1, no nucleotide.

What is called Kd is the equilibrium constant for the complex coming apart. The low end stands for tighter binding, the high end for weaker binding.

Regarding “ApoZNG1: recombinant murine ZNG1 devoid of bound metal”, the “activation of Zn2METAP1” value in data set [1] (setting [8]) is “no activation”.

Take `CCCCCCCCCCCCCC(=O)O[C@H]1CC[C@H](NC(=O)[C@H](OC)[C@H](O)[C@@H](O)[C@H](O)/C=C/C(C)C)C(=O)N(C)C1` [Bengamide B]: the “proliferation (CellTrace)” value in data set [2] (WT TKPTS cells, 50 nM Bengamide B) was “reduced cellular proliferation”. In addition, the survival result in data set [3] (WT control larvae, 1 μM inhibitor, three days of treatment) was “remained viable”. Further, the lethality in data set [3] (zng1 mutant larvae, 1 μM inhibitor, three days of treatment) is 100%. Besides, the viability result in data set [3] (zng1 mutant larvae, co-treatment 500 nM Bengamide B and TPEN vs 500 nM Bengamide B alone) is listed as “decreased viability”. In data set [4] (WT larvae, 6 dpf, three days 500 nM vs vehicle), the “height at anterior anal fin (HAA)” value is recorded as “significantly reduced HAA”. The “morphologic abnormalities (PCE, YSE, USB, CD)” value in data set [4] (metap1 mutant larvae vs WT controls at 6 dpf, 1 μM) was “significantly higher morphologic abnormalities”.

For the molecule “Zebrafish Zng1: recombinant zebrafish Zng1, Zn bound (holo-Zng1)”, the apo-Metap1 activity result in data set [5] is given as “stimulates”.

As for “ZnZNG1: recombinant murine ZNG1 loaded with 0.9 eq Zn at the high-affinity site”, the “activation of Zn2METAP1” value is reported as “recovers small amounts of Zn4METAP1 activity” in data set [1] (setting [8]); “no effect” in data set [1] (250 μM NTA, GDPNP); “significant activation” in data set [1] (250 μM NTA, GTP, above that of NTA-bound Zn); “only minor activation” in data set [1] (250 μM NTA, presence and absence of GDP); “some ZnZNG1-dependent activation” in data set [1] (in the presence of 500 μM GDP); “no activation” in data set [1] (in the presence of 500 μM GDPNP). For the same molecule, in data set [1] (in the presence of 500 μM GTP), the “activation of Zn2METAP1” value is recorded as “nearly fully activates”. For the same molecule, the “activation of Zn4METAP1” value in data set [1] (fully metalated Zn4METAP1, absence of nucleotide) is given as “no activation”.

Take Hs ZNG1 N-terminal peptide: the Kd in data set [6] and in data set [7] was 100 nM throughout.

As to `CO[C@@H]1[C@H](OC(=O)NC(=O)CCl)CC[C@]2(CO2)[C@H]1[C@@]1(C)O[C@@H]1CC=C(C)C` [TNP-470], the “proliferation (CellTrace)” value in data set [2] (Zng1^−/− cells relative to WT, 5 μg/ml TNP-470) was “slowed proliferation”. Also, the survival result in data set [3] (zng1 mutant larvae compared to WT, Zn-deplete conditions (TPEN)) is given as “more pronounced”; in data set [3] (zng1 mutant larvae compared to WT, immersion, three days) it was “decreased survival”.

Consider Ac-MEDEDECPELVPIKEKPSGP-NH2 [Dr ZNG1 N-terminal peptide], for which the Kd in data set [6] and in data set [7] was around 100 nM each time.

As to Ac-AEEEYAEDCPELVPIETKNQE-NH2 [Mm ZNG1 N-terminal peptide], the Kd in data set [6] and in data set [7] was around 100 nM each time.

These data come from patent US20250304625A1, “ARTICLES AND METHODS FOR INHIBITING METHIONINE AMINOPEPTIDASE ACTIVITY” (Vanderbilt University, priority 2022, published 2025).
